From patent publication US20230086210A1 (Hoffmann-La Roche, published 2023)

B1: 4-1BB huIgG1 P329G LALA (anti-human 4-1BB clone 20H4.9 as huIgG1 P329G LALA) (antibody, V domains shown)
VH: QVQLQQWGAGLLKPSETLSLTCAVYGGSFSGYYWSWIRQSPEKGLEWIGEINHGGYVTYNPSLESRVTISVDTSKNQFSLKLSSVTAADTAVYYCARDYGPGNYDWYFDLWGRGTLVTVSS
VL: EIVLTQSPATLSLSPGERATLSCRASQSVSSYLAWYQQKPGQAPRLLIYDASNRATGIPARFSGSGSGTDFTLTISSLEPEDFAVYYCQQRSNWPPALTFGGGTKVEIK
notes: Human IgG1 with P329G L234A L235A
B2: 4-1BB×PD-L1 2+1 (bispecific agonistic 4-1BB×PD-L1 antibody with bivalent binding to 4-1BB (clone 20H4.9) and monovalent binding to PD-L1, Head to Head 2+1 … (bispecific antibody)
heavy 1: QVQLQQWGAGLLKPSETLSLTCAVYGGSFSGYYWSWIRQSPEKGLEWIGEINHGGYVTYNPSLESRVTISVDTSKNQFSLKLSSVTAADTAVYYCARDYGPGNYDWYFDLWGRGTLVTVSSASTKGPSVFPLAPSSKSTSGGTAALGCLVEDYFPEPVTVSWNSGALTSGVHTFPAVLQSSGLYSLSSVVTVPSSSLGTQTYICNVNHKPSNTKVDEKVEPKSCDKTHTCPPCPAPEAAGGPSVFLFPPKPKDTLMISRTPEVTCVVVDVSHEDPEVKFNWYVDGVEVHNAKTKPREEQYNSTYRVVSVLTVLHQDWLNGKEYKCKVSNKALGAPIEKTISKAKGQPREPQVCTLPPSRDELTKNQVSLSCAVKGFYPSDIAVEWESNGQPENNYKTTPPVLDSDGSFFLVSKLTVDKSRWQQGNVFSCSVMHEALHNHYTQKSLSLSP
heavy 2: not shown
light 1: not shown
light 2: not shown
B3: 4-1BB×PD-L1 1+1 (bispecific antibody with monovalent binding to 4-1BB (clone 20H4.9) and monovalent binding to PD-L1) (bispecific antibody)
heavy 1: B2 heavy 1
heavy 2: not shown
light 1: not shown
light 2: not shown

Tests used:
[1] = target: human 4-1BB on Jurkat-hu4-1BB-NFκB-luc2 reporter cells (human, UniProt Q07011 24-255); assay: cell-based or functional assay; parameters: AUC of NFκB-activation-induced Luciferase activity curve: unit not given beside the values
[2] = target: T1, human PD-L1 on MKN45-huPD-L1 cells (human, UniProt Q9NZQ7 19-290); assay: flow cytometry on MKN45-huPD-L1 cells, PE-conjugated goat F(ab')2 anti-human Fcγ, geo mean of fluorescence, baseline corrected
T1 construct: The entry is the complete precursor; also called MKN45-PD-L1; human PD-L1-expressing MKN45 cells
Experimental: All values are baseline corrected by subtracting the baseline values of the blank control (e.g. no primary only secondary detection antibody).
Cells were incubated for 30 min at 4° C. and then washed twice with 80 μL/well DPBS. […] Cells were washed twice with 80 μL/well DPBS and then fixed in 30 μL/well DPBS containing 1% formaldehyde for at least 15 minutes.

[3] = target: T1, human PD-L1 on MKN45-huPD-L1 cells; assay: flow cytometry on MKN45-huPD-L1 cells, area under the binding curve; parameters: unit not given beside the values

Chain of human 4-1BB on Jurkat-hu4-1BB-NFκB-luc2 reporter cells (Q07011 24-255): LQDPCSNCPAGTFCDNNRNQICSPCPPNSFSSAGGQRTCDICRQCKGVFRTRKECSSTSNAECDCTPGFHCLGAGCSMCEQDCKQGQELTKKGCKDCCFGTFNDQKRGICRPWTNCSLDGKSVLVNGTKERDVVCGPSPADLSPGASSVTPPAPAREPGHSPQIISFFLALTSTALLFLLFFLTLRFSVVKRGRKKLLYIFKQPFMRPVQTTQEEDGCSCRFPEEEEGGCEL
T1 sequence (Q9NZQ7 19-290 limits assumed): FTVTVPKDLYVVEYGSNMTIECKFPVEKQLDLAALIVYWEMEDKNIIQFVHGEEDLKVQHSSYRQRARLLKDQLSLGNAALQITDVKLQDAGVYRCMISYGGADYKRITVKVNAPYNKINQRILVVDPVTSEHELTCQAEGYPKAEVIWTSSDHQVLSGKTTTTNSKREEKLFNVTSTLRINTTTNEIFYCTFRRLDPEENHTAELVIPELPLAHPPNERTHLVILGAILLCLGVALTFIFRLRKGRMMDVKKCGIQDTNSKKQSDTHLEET

| Binder | AUC of NFκB-activation-induced Luciferase activity curve [1] | EC50 of NFκB-activation-induced Luciferase activity curve [1] [nM] | binding result [2] | AUC [3] |
| --- | --- | --- | --- | --- |
| B1 | 8870 | 0.32 | no binding (tested: 100 nM) | 432 |
| B2 | 135000 | 0.037 |  |  |
| B3 | 122000 | 0.097 |  |  |
